Data on 8 substances can be found in patent publication US20160355591A1.

For test [1], the target named is T1, CD20 on human cells (human) (UniProt P11836).
T1 sequence (looked up): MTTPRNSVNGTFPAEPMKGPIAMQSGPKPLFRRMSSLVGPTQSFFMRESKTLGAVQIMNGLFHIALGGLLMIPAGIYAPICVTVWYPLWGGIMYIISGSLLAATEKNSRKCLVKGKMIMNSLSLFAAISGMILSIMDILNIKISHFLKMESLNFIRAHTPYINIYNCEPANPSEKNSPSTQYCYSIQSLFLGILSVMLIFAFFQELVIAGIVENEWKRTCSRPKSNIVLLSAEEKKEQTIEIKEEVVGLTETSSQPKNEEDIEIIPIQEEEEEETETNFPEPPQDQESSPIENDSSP
The test is described as follows: indirect flow cytometry, Namalwa cells, FITC-GAM 2nd Ab; none 2.91. For orientation: A flow cytometer gives signals particle by particle.

For test [2], the target named is T2, CD20 on dog lymphocytes and dog lymphoma cells (dog) (UniProt Q3C2E2).
T2 sequence (looked up): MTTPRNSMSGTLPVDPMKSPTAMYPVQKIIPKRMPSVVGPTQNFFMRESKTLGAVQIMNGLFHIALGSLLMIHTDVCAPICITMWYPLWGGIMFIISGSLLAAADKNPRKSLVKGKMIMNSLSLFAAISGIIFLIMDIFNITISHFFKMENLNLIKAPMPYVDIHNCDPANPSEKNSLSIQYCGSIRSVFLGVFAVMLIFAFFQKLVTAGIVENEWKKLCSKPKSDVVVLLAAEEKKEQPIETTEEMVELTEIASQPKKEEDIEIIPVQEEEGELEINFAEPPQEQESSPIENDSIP
The experiment in a line: flow cytometry, dog lymphoma aspirate; none 3.37.

For test [3], the target named is T1, CD20 on human cells (human). The experiment in a line: Kasumi-1 (AML) cells; no mAb 18.2.
The target is the same in test [4]. The test is described as follows: GDM-1 (AML) cells; no mAb 16.8.
The target is the same in test [5]. The test is described as follows: REH (ALL) cells; no mAb 3.9.
Test [6] shares this target. The experiment in a line: 697 (ALL) cells; no mAb 4.9.
The target in test [7] is T2, CD20 on dog lymphocytes and dog lymphoma cells (dog). The test is described as follows: flow cytometry, canine lymphoma aspirate 150836; none 3.9.
The target of test [8] is T1, CD20 on human cells (human). The test is described as follows: WAC (CLL) cells; no mAb 15.8.
The target is the same in test [9]. The experiment in a line: K562 (CML) cells; no mAb 3.2.
Test [10] has the same target. The experiment in a line: HC-1 (hairy cell leukemia) cells; no mAb 4.8.
Test [11] concerns the target T2, CD20 on dog lymphocytes and dog lymphoma cells (dog). The experiment in a line: flow cytometry on tumor aspirates from dogs with lymphoma.
In test [12] the target is T1, CD20 on human cells (human). The test is described as follows: RS4;11 (ALL) cells; no mAb 6.4.
Test [13] deals with T2, CD20 on dog lymphocytes and dog lymphoma cells (dog). The experiment in a line: flow cytometry, dog lymphoma aspirate; none 3.85.
Test [14] deals with T1, CD20 on human cells (human). The test is described as follows: Kasumi-3 (AML) cells; no mAb 9.6.
Test [15] shares this target. The test is described as follows: Jeko-1 (MCL) cells; no mAb 14.3.
Test [16] shares this target. The test is described as follows: Granta-519 (MCL) cells; no mAb 15.3.
Test [17] shares this target. The experiment in a line: MN60 (ALL) cells; no mAb 8.1.
The target is the same in test [18]. The experiment in a line: MEC-1 (CLL) cells; no mAb 4.7.
The target of test [19] is T2, CD20 on dog lymphocytes and dog lymphoma cells (dog). The experiment in a line: flow cytometry, canine lymphoma aspirate 150836; none 3.4.
Test [20] addresses HLA-DR (human leukocyte antigen-DR) on human lymphoma and leukemia cells and human lymphocytes (human). The experiment in a line: GDM-1 (AML) cells; no mAb 16.8; isotype control.
The target of test [21] is HLA-DR (L243 antigen) on canine lymphocytes and canine lymphoma cells (dog). The test is described as follows: flow cytometry, canine lymphoma aspirate 150836; none 3.9; control antibody.
The target in test [22] is HLA-DR (human leukocyte antigen-DR) on human lymphoma and leukemia cells and human lymphocytes (human). The experiment in a line: Jeko-1 (MCL) cells; no mAb 14.3; isotype control.
Test [23] has the same target. The experiment in a line: MEC-1 (CLL) cells; no mAb 4.7; isotype control.
For test [24] the target is unchanged. The test is described as follows: K562 (CML) cells; no mAb 3.2; isotype control.
Test [25] shares this target. The test is described as follows: Kasumi-1 (AML) cells; no mAb 18.2; isotype control.
In test [26] the target is HLA-DR (L243 antigen) on canine lymphocytes and canine lymphoma cells (dog). The experiment in a line: flow cytometry, dog lymphoma aspirate; none 3.85; control antibody.
Test [27] addresses HLA-DR (human leukocyte antigen-DR) on human lymphoma and leukemia cells and human lymphocytes (human). The experiment in a line: 697 (ALL) cells; no mAb 4.9; isotype control.
The target is the same in test [28]. The experiment in a line: Granta-519 (MCL) cells; no mAb 15.3; isotype control.
For test [29] the target is unchanged. The test is described as follows: WAC (CLL) cells; no mAb 15.8; isotype control.
Test [30] has the same target. The test is described as follows: REH (ALL) cells; no mAb 3.9; isotype control.
Test [31] deals with HLA-DR (L243 antigen) on canine lymphocytes and canine lymphoma cells (dog). The experiment in a line: flow cytometry, canine lymphoma aspirate 150836; none 3.4; control antibody.
Test [32] has as its target HLA-DR (human leukocyte antigen-DR) on human lymphoma and leukemia cells and human lymphocytes (human). The test is described as follows: HC-1 (hairy cell leukemia) cells; no mAb 4.8; isotype control.
For test [33] the target is unchanged. The test is described as follows: RS4;11 (ALL) cells; no mAb 6.4; isotype control.
Test [34] concerns the target HLA-DR (L243 antigen) on canine lymphocytes and canine lymphoma cells (dog). The experiment in a line: flow cytometry, dog lymphoma aspirate; none 3.37; control antibody.
The target in test [35] is HLA-DR (human leukocyte antigen-DR) on human lymphoma and leukemia cells and human lymphocytes (human). The experiment in a line: Kasumi-3 (AML) cells; no mAb 9.6; isotype control.
Test [36] has the same target. The test is described as follows: indirect flow cytometry, Namalwa cells, FITC-GAM 2nd Ab; none 2.91; control antibody.
The target is the same in test [37]. The test is described as follows: MN60 (ALL) cells; no mAb 8.1; isotype control.
Test [38] has as its target CD22 on human cells (human) (UniProt P20273). The test is described as follows: indirect flow cytometry, Namalwa cells, FITC-GAM 2nd Ab; none 2.91.
Test [39] has as its target CD22 on dog lymphocytes and dog lymphoma cells (dog). The experiment in a line: flow cytometry, dog lymphoma aspirate; none 3.37.
The target of test [40] is CD22 on human cells (human) (UniProt P20273). The test is described as follows: Kasumi-1 (AML) cells; no mAb 18.2.
For test [41] the target is unchanged. The test is described as follows: GDM-1 (AML) cells; no mAb 16.8.
Test [42] has the same target. The test is described as follows: REH (ALL) cells; no mAb 3.9.
The target is the same in test [43]. The test is described as follows: 697 (ALL) cells; no mAb 4.9.
Test [44] addresses CD22 on dog lymphocytes and dog lymphoma cells (dog). The experiment in a line: flow cytometry, canine lymphoma aspirate 150836; none 3.9.
Test [45] addresses CD22 on human cells (human) (UniProt P20273). The test is described as follows: WAC (CLL) cells; no mAb 15.8.
The target is the same in test [46]. The experiment in a line: K562 (CML) cells; no mAb 3.2.
For test [47] the target is unchanged. The experiment in a line: HC-1 (hairy cell leukemia) cells; no mAb 4.8.
The target is the same in test [48]. The experiment in a line: RS4;11 (ALL) cells; no mAb 6.4.
Test [49] concerns the target CD22 on dog lymphocytes and dog lymphoma cells (dog). The test is described as follows: flow cytometry, dog lymphoma aspirate; none 3.85.
The target of test [50] is CD22 on human cells (human) (UniProt P20273). The test is described as follows: Kasumi-3 (AML) cells; no mAb 9.6.
Test [51] has the same target. The test is described as follows: Jeko-1 (MCL) cells; no mAb 14.3.
The target is the same in test [52]. The test is described as follows: Granta-519 (MCL) cells; no mAb 15.3.
The target is the same in test [53]. The test is described as follows: MN60 (ALL) cells; no mAb 8.1.
Test [54] has the same target. The experiment in a line: MEC-1 (CLL) cells; no mAb 4.7.
In test [55] the target is CD22 on dog lymphocytes and dog lymphoma cells (dog). The test is described as follows: flow cytometry, canine lymphoma aspirate 150836; none 3.4.
The target of test [56] is HLA-DR (human leukocyte antigen-DR) on human lymphoma and leukemia cells and human lymphocytes (human). The test is described as follows: indirect flow cytometry, Namalwa cells, FITC-GAM 2nd Ab; none 2.91; antibody of irrelevant specificity.
Test [57] has as its target Fcγ-receptor on effector cells. The test is described as follows: cell-based or functional assay.
Test [58] addresses CD22 on dog lymphocytes and dog lymphoma cells (dog). The test is described as follows: flow cytometry, dog lymphoma aspirate; none 4.48.
Test [59] has the same target. The test is described as follows: flow cytometry, canine lymphoma aspirate 150836; none 3.2.
For test [60] the target is unchanged. The experiment in a line: flow cytometry, dog lymphoma aspirate; none 3.24.
The target is the same in test [61]. The experiment in a line: flow cytometry, canine lymphoma aspirate 150836; none 4.5.
For test [62], the target named is HLA-DR (human leukocyte antigen-DR) on human lymphoma and leukemia cells and human lymphocytes (human). The test is described as follows: indirect flow cytometry, Namalwa cells, FITC-GAH 2nd Ab; none 2.52; antibody of irrelevant specificity (anti-EGP-1).

Substance “2B8 (murine anti-human CD20 mAb) (antibody)” displayed a geometric mean fluorescence in test [1] of 6.16. The mean FL stood at 3.11 in test [2]; 14.5 in test [3]; 15.6 in [4]; 23.5 in [5]; 6.9 in [6]; 275 in test [8]. For the same substance, the mean FL in test [9] stood at 4.3; in test [10], 42.2; in test [12] it was 11.5; in test [14], 11; in test [15] it was 455; in test [16], 677. Also, the mean FL in [17] is 162; in [18] it was 175; in test [19], 3.1. In addition, the values for the % Positive in [7] and in [13] were 2.6% and 2.61%, respectively. In addition, the positive samples (of 21 samples) in test [11] stood at 5. In addition, the strongly positive samples (of 21 samples) in [11] came out at 3.

As for “Ag8 (P3x63 Ag8, murine myeloma derived mAb, isotype control) (antibody)”, the mean FL in test [20] was determined as 20.1; in test [22] it was 17.4; in test [23], 6; in test [24], 4.1; in [25], 17; in test [27], 5.6. Further, the mean FL was 16.9 in [28]; 14.4 in test [29]; 3.9 in [30]; 3 in test [31]; 3.5 in test [32]; 8.6 in [33]. Also, the figures for the mean FL in [34], in [35] and in test [37] were 3.04, 15.7 and 10.5, respectively. Also, the % Positive in test [21] was determined as 2.8%; in [26], 2.81%. For the same substance, in test [36], the geometric mean fluorescence amounted to 3.64.

In [38], “LL2 (murine anti-human CD22 mAb) (antibody)” registered a geometric mean fluorescence of 10.5. The mean FL amounted to 3.73 in test [39]; 20.9 in [40]; 28.5 in [41]; 16.8 in [42]; 15.9 in test [43]; 20.1 in [45]. The mean FL came to 4.3 in test [46]; 17.8 in [47]; 20.9 in [48]; 13.9 in [50]; 25 in test [51]; 28.6 in [52]. For the same substance, the mean FL came to 17.1 in test [53], 49 in test [54] and 3.7 in test [55]. Further, the % Positive turned out to be 5.1% in [44] and 5.05% in [49].

In turn, RS7 (murine mAb) (antibody) gave a geometric mean fluorescence in test [56] of 3.39.

In turn, “hL243 (humanized L243 anti-HLA-DR antibody, IgG1/K isotype)” yielded a specific lysis of Daudi target cells (ADCC), corrected for the effect on effector cells in test [57] of 48%.

“hL243γ4P (IMMU-114; humanized L243, IgG4/K isotype with Ser241Pro hinge mutation) (antibody)” registered a specific lysis of Daudi target cells (ADCC), corrected for the effect on effector cells in test [57] of 12%.

Regarding “hLL2 (epratuzumab, humanized anti-CD22) (antibody)”, the values for the % Positive in [58] and in test [61] were 4.85% and 4.9%, respectively. Besides, the mean FL in test [59] amounted to 3.4; in test [60] it was 3.37.

hRS7 (humanized anti-EGP-1 antibody) yielded a geometric mean fluorescence in test [62] of 2.47.
